In the test the target is FtsZ (wild type, Caulobacter crescentus) (Caulobacter crescentus). Briefly: BLI. (In general: In BLI a coated tip is dipped into the sample, and binding shifts an interference pattern.)

This is an account of results in PMC9897490.

The Kd is a measure of binding affinity in units of concentration. A lower Kd goes with a tighter complex.

Chain of FtsZ (wild type, Caulobacter crescentus) (Caulobacter crescentus) (B8H080 whole entry): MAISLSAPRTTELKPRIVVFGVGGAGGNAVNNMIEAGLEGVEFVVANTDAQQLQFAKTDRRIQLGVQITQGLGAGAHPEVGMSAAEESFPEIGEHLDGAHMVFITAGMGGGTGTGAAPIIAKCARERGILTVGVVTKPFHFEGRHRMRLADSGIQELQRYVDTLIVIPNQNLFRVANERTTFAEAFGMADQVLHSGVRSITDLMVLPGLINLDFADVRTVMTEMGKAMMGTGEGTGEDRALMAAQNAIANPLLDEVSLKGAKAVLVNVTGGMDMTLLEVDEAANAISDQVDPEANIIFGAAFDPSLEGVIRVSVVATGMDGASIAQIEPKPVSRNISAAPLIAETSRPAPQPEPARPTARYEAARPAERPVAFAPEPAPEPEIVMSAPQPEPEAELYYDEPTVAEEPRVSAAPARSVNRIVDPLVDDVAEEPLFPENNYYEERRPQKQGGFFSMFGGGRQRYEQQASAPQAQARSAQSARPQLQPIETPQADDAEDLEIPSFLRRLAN

MipZ-His6 (wild type) (enzyme) returned a Kd of 11 µM.
